# Measurements taken from the supplement of paper PMC10567573.
# ± gives the standard deviation.
# Experiment: protein stability index of a GFP-peptide fusion (GPS, HEK-293T) (PSI 1-6); higher = more stable
# [1] = treatment: DMSO, c terminus: a fixed tail appended
# [2] = treatment: MLN4924 1 uM, 8 h, c terminus: a fixed tail appended
# [3] = treatment: DMSO, c terminus: native
# [4] = treatment: MLN4924 1 uM, 8 h, c terminus: native
# 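Also: 24-mer peptide tiles fused after GFP, lentivirally expressed, FACS-sorted into six equal bins by GFP/DsRed ratio, decoded by Illumina sequencing, PSI is the read-weighted mean bin number.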
Sequence,protein stability index [1],protein stability index [2],protein stability index [3],protein stability index [4]
AAFLALLRFLYSDEVQIGPETVMT [BTBD1],2.49 ± 0.78,2.14 ± 0.004,–,–
AAHPPLPLLPPAMGTEPAPSAPEA [TBX6],5.45 ± 0.24,5.52 ± 0.21,–,–
ACCEFLESQLDPSNCLGIRDFAET [KLHL12],2.79 ± 0.37,3 ± 0.5,–,–
ACRRRDALTGHLRTHSVIKEETNH [IKZF1],4.01 ± 0.76,3.76 ± 0.89,–,–
ACYFGHRQVVQDLLKAGAEVNVLN [OSBPL1A],2.46 ± 0.2,2.6 ± 0.38,–,–
ADMLKQYFRDLPEPLMTNKLSETF [DLC1],2.71 ± 0.26,2.86 ± 0.22,–,–
AEDEEMNRMHESMKLFDSICNNKW [GNAI1],3.97 ± 0.21,4.02 ± 0.22,–,–
AEEAGLKNNDLVVAVNGESVETLD [PDZK1],5.49 ± 0.2,5.51 ± 0.26,–,–
AEEYDEKTSELLVRKWRVKSALGA [DPCD],3.34 ± 0.36,4.04 ± 0.29,–,–
AEGPNRLLYKDGFSTILHLLLGSP [LPCAT4],2.23 ± 0.98,2.08 ± 0.29,–,–
AEGRVVGRKDITSILRAPAYPLEL [MOSPD3],3.27 ± 0.19,3.33 ± 0.18,–,–
AENSPYLNPQLVQPAKKPLLWSDP [ESRRG],3.9 ± 0.25,3.81 ± 0.23,–,–
AEPGALGEPGAAAPAMYDDESAID [CEBPD],5.6 ± 0.57,5.77 ± 0.21,–,–
AESSVPPVTSIGIDNLGLKLEENL [SLC35F2],4.97 ± 0.2,5.13 ± 0.13,–,–
AFAERYAPDKTSTVLTRHSQPATP [PDLIM7],4 ± 0.3,3.82 ± 0.18,–,–
AFHGLSLGLSLTNGLALGPDLNIL [PSD2],2.57 ± 0.56,2.54 ± 0.5,–,–
AFLGPDEAFALPDSLLVVLDMDEG [SPSB4],2.45 ± 0.39,2.6 ± 0.38,–,–
AFSPIVILTERVSLPFKPFAIILP [MIA2],–,2.87 ± 0.24,–,–
AGSVVAAVQGLNLRSPNNFLSYYR [CCND1],2.58 ± 0.2,2.61 ± 0.32,–,–
AGTAGVGETGSGDQAGGEGKHITV [MYOZ1],5.51 ± 0.14,5.05 ± 0.71,–,–
AHGADPTHRLKDGSTMLIEAAKGG [ANKRD17],4.7 ± 0.31,4.91 ± 0.16,–,–
AHNSNWYITFQSDTDAQQAFILKR [LARP4],2.38 ± 0.25,2.4 ± 0.55,–,–

Sequence,protein stability index [1],protein stability index [2],protein stability index [3],protein stability index [4]
AHRERNEFPEDPEFEAVVRQAELA [PI4K2A],5.32 ± 0.12,5.36 ± 0.43,–,–
AHSSSNTIRSGISPNLNVVDGRLT [SASS6],4.16 ± 0.28,4.31 ± 0.12,–,–
AKEDGKADTKKRHTPRGHAESTSN [SMOC2],5.53 ± 0.25,5.45 ± 0.35,–,–
AKGGSRLCTPEGWFSCQGPFDMDS [DFFB],3.01 ± 0.3,3.1 ± 0.27,–,–
AKMAGIGIREASSGGGGSSSNFHI [KRT15],3.16 ± 0.4,3.14 ± 0.27,–,–
AKQIMEETYKMEFMYSGVENKQVV [INTS4],2.23 ± 0.31,2.65 ± 0.61,–,–
AKRLWKVCVEHHTFFRLLLPEAPP [EPB41L3],2.48 ± 0.88,2.42 ± 0.76,–,–
ALFAQVQRGALPAPDPELAAEMYQ [RSAD1],3.69 ± 0.087,3.78 ± 0.34,–,–
ALLALDENFDHNTLALILQIPTQN [PPFIA4],2.21 ± 0.47,2.17 ± 0.29,–,–
ALLTGGGSENRNHRLLNMARNNND [RNF180],3.7 ± 0.41,3.76 ± 0.35,–,–
ALPSVMRFCCCVAVIYLGYCFCGW [MCOLN1],2.76 ± 0.59,2.83 ± 0.31,–,–
ALRSHLKSFSMANGLNARMMHGGS [RAB40B],2.71 ± 0.38,2.5 ± 0.62,–,–
ANDGDYWRLLNPGEYVVTAKAEGF [CPXM2],2.81 ± 0.35,2.87 ± 0.081,–,–
ANMEDLTEVITASEFHPHHCNLFV [PPP2R2C],2.49 ± 0.3,2.41 ± 0.24,–,–
ANQKLSEKLAAGALPHINARGPVR [CCDC3],3.62 ± 0.43,3.86 ± 0.77,–,–
APAQRATRGFLRSPSSDLDTDAEG [RETREG3],5.44 ± 0.13,5.14 ± 0.18,–,–
APGTGPAQTELLCCLVKMESLEPD [FANCE],3.28 ± 0.23,3.39 ± 0.12,–,–
APTKPHDYRQEQPETFWIQRAPQL [SPAG8],3.61 ± 0.11,3.73 ± 0.19,–,–
APVPTHSTVSELSRSPVATATSC [DUSP5],–,–,2.72 ± 0.17,2.86 ± 0.13
AQLQALRQKEVDFCISLLRERFME [INTS3],2.61 ± 0.27,2.58 ± 0.59,–,–
AQNNCPAIMNALIEAGAHMDATNA [FEM1A],4.46 ± 0.23,4.49 ± 0.079,–,–
AQRRRMDEISDHAKVLTLSDDLER [EIF5],4.98 ± 0.26,5.04 ± 0.22,–,–

Sequence,protein stability index [1],protein stability index [2],protein stability index [3],protein stability index [4]
AQSGERECHIVVLTDDDVVDWDEE [BTBD10],5.205 ± 0.041,5.14 ± 0.28,–,–
ARELQEALPEAPAPLLPHITATSL [BCL2L13],4.32 ± 0.4,4.32 ± 0.22,–,–
ARFVSSGSGGGYGGGMRVCGFGGG [KRT15],2.63 ± 0.31,2.74 ± 0.25,–,–
ARVNENLARKIASRNEFDRTIAET [SSNA1],3.95 ± 0.15,4.06 ± 0.2,–,–
ASHQQQVLPPRQPSALVPSVTEYR [MYBL2],4.38 ± 0.28,4.37 ± 0.15,–,–
ASKMESTIKPRRVEPVCSGLQAQI [CHCHD6],3.47 ± 0.17,3.6 ± 0.24,–,–
ASLNHLDSHILLCLMGLAETPGCA [DCAF4],3.14 ± 0.58,2.82 ± 0.34,–,–
ASQSPKKPPAKDPLADLNIKDFL [SNAP91],–,–,4.45 ± 0.29,4.58 ± 0.34
ASSSPVTLRQKTVDWRRVSRLQED [SLA],3.9 ± 0.36,3.77 ± 0.32,–,–
ASSVESTLPVLEASSWKKQVSHDF [FBXO34],3.56 ± 0.49,3.67 ± 0.62,–,–
ASTVLKSVGFQSNEAASLASTGVG [SLC2A12],4.16 ± 0.3,4.15 ± 0.35,–,–
ASVINNMLAEIFCQTGGVEDQEEW [ZBED1],3.31 ± 0.31,3.89 ± 0.33,–,–
ATLKGPDSHYGTKGLKKVVHETPA [BTBD1],4.21 ± 0.34,4.543 ± 0.04,–,–
ATPRQVPSLQHLCRMSIRRVMPTQ [WSB1],3.83 ± 0.23,3.77 ± 0.15,–,–
ATVVMMTKLEERSRVKCDQYWPSR [PTPRD],2.42 ± 0.32,2.17 ± 0.38,–,–
AVAFMPEDITKGTQSLPTASASKF [AUP1],4.22 ± 0.18,4.3 ± 0.16,–,–
AVEAGQEECAKWLLLNNANPNLSN [RIPK4],3.82 ± 0.25,4.26 ± 0.47,–,–
AVGVLLLGLVGYYIFRVANHQKDL [DHCR7],2.84 ± 0.29,2.79 ± 0.53,–,–
AVLGFPGFSSGRHRWQVDLQLGDG [TRIM15],2.18 ± 0.069,2.22 ± 0.17,–,–
AYFPYFKKHNVTAVVRLNKKIYEA [CDC14A],2.34 ± 0.33,2.08 ± 0.16,–,–
AYPFYWAWLPQAKVPFSQEIKDLI [PI4K2A],2.23 ± 0.32,2.13 ± 0.14,–,–
